Test results as given in article PMC8252718, “carba Nicotinamide Adenine Dinucleotide Phosphate: Robust Cofactor for Redox Biocatalysis” (Angewandte Chemie (International Ed. in English), 2021).

B1: SsGDH (Saccharolobus solfataricus) (protein)
chain: MKAIIVKPPNAGVQVKDVDEKKLDSYGKIKIRTIYNGICGTDREIVNGKLTLSTLPKGKDFLVLGHEAIGVVEESYHGFSQGDLVMPVNRRGCGICRNCLVGRPDFCETGEFGEAGIHKMDGFMREWWYDDPKYLVKIPKSIEDIGILAQPLADIEKSIEEILEVQKRVPVWTCDDGTLNCRKVLVVGTGPIGVLFTLLFRTYGLEVWMANRREPTEVEQTVIEETKTNYYNSSNGYDKLKDSVGKFDVIIDATGADVNILGNVIPLLGRNGVLGLFGFSTSGSVPLDYKTLQEIVHTNKTIIGLVNGQKPHFQQAVVHLASWKTLYPKAAKMLITKTVSINDEKELLKVLREKEHGEIKIRILWE
notes: details only in supplement
B2: LmG6PDH (Leuconostoc mesenteroides) (protein)
chain: VSEIKTLVTFFGGTGDLAKRKLYPSVFNLYKKGYLQKHFAIVGTARQALNDDEFKQLVRDSIKDFTDDQAQAEAFIEHFSYRAHDVTDAASYAVLKEAIEEAADKFDIDGNRIFYMSVAPRFFGTIAKYLKSEGLLADTGYNRLMIEKPFGTSYDTAAELQNDLENAFDDNQLFRIDHYLGKEMVQNIAALRFGNPIFDAAWNKDYIKNVQVTLSEVLGVEERAGYYDTAGALLDMIQNHTMQIVGWLAMEKPESFTDKDIRAAKNAAFNALKIYDEAEVNKYFVRAQYGAGDSADFKPYLEELDVPADSKNNTFIAGELQFDLPRWEGVPFYVRSGKRLAAKQTRVDIVFKAGTFNFGSEQEAQEAVLSIIIDPKGAIELKLNAKSVEDAFNTRTIDLGWTVSDEDKKNTPEPYERMIHDTMNGDGSNFADWNGVSIAWKFVDAISAVYTADKAPLETYKSGSMGPEASDKLLAANGDAWVFKG
notes: details only in supplement
B3: ScG6PDH (Saccharomyces cerevisiae S288C) (protein)
chain: SEGPVKFEKNTVISVFGASGDLAKKKTFPALFGLFREGYLDPSTKIFGYARSKLSMEEDLKSRVLPHLKKPHGEADDSKVEQFFKMVSYISGNYDTDEGFDELRTQIEKFEKSANVDVPHRLFYLALPPSVFLTVAKQIKSRVYAENGITRVIVEKPFGHDLASARELQKNLGPLFKEEELYRIDHYLGKELVKNLLVLRFGNQFLNASWNRDNIQSVQISFKERFGTEGRGGYFDSIGIIRDVMQNHLLQIMTLLTMERPVSFDPESIRDEKVKVLKAVAPIDTDDVLLGQYGKSEDGSKPAYVDDDTVDKDSKCVTFAAMTFNIENERWEGVPIMMRAGKALNESKVEIRLQYKAVASGVFKDIPNNELVIRVQPDAAVYLKFNAKTPGLSNATQVTDLNLTYASRYQDFWIPEAYEVLIRDALLGDHSNFVRDDELDISWGIFTPLLKHIERPDGPTPEIYPYGSRGPKGLKEYMQKHKYVMPEKHPYAWPVTKPEDTKDN
notes: details only in supplement

What was measured:
steady-state kinetics [1] = substrate: NC(=O)c1ccc[n+]([C@@H]2C[C@H](COP(=O)(O)OP(=O)(O)OC[C@H]3O[C@@H](n4cnc5c(N)ncnc54)[C@H](OP(=O)(O)O)[C@@H]3O)[C@@H](O)[C@H]2O)c1; test: steady-state kinetics; assay type: biochemical, Saccharolobus solfataricus; conditions: sugar oxidation; D-glucose activity about half of that with NADP+; varied: cofactor
Description: (§1) steady-state kinetics on SsGDH | Looking deeper into the kinetic parameters of a selection of five enzymes | decreased Michaelis constant (K m) for the biomimetic for most of the enzymes

steady-state kinetics [2] = substrate: NC(=O)c1ccc[n+]([C@@H]2O[C@H](COP(=O)(O)OP(=O)(O)OC[C@H]3O[C@@H](n4cnc5c(N)ncnc54)[C@H](OP(=O)(O)O)[C@@H]3O)[C@@H](O)[C@H]2O)c1; test: steady-state kinetics; assay type: biochemical, Saccharolobus solfataricus; conditions: sugar oxidation; natural cofactor; varied: cofactor
Description: as §1

[3] = substrate: NC(=O)c1ccc[n+]([C@@H]2C[C@H](COP(=O)(O)OP(=O)(O)OC[C@H]3O[C@@H](n4cnc5c(N)ncnc54)[C@H](OP(=O)(O)O)[C@@H]3O)[C@@H](O)[C@H]2O)c1; test: purified protein, by the assay type; set-up: Spectrophotometric steady-state kinetics with varied oxidised cofactor in 96-well plates; conditions: pH 8.0
Description: (§2) 12 cofactor concentrations of both cofactors ([NADP+ ] or [cNADP+ ]) x 2 (duplicates) = 48 reaction mixtures The enzyme concentration [E] as well as the buffer concentration [buffer] and the measurement conditions ( such as temperature of measurement (Tmeasure); volume (V), preheating time (theat), sequence of process steps (pipetting, preheating, addition of enzyme and measurement) were kept constant for the measurements of a kinetic. The reaction mixtures were pipetted in MTPs with the help of LHS, followed by preheating of the mixture and addition of 25 µL of enzyme solution was added with an electric MCP in multi-dispense mode, and measurement in an Epoch 2 - BioTek photometer. […] Detailed values of concentrations and reaction conditions can be found in the corresponding figures and their discriptons. SUPPORTING INFORMATION S5 Enzymatic activity measurements for NADP+ and carba-NADP+ All assays were performed in 96-well MTP plates in a reaction volume of 200 µL. Reactions were started by adding the enzyme. A detailed overview is given in (Table 2) showing the preferred reaction, the acceptance towards both cofactors (NADP(H) and carba-NADP(H)) and further reaction conditions. For all reactions, multiple negative reactions, were performed without adding a cofactor, enzyme or substrate, respectively. Production of carba-NADP+ The cofactor carba-NADP+ was prepared according to literature(WO 2011/012270 A1) by means of chemical and biocatalytical methods.[2] […] Reaction was followed spectrophotometrically. After full reduction, SsGDH was removed using a centrifugal filter with 10 kDa cut-off. The reduced cofactor was stored at -80 °C until further use. 10 mM stock was diluted 1:10 within the final reaction mixture. Biocatalytic approaches using (carba)-NADPH thus contained 2 mM glucose, 1 mM gluconic acid and 0.2 mM Tris-HCl as contaminants.

[4] = substrate: NC(=O)c1ccc[n+]([C@@H]2O[C@H](COP(=O)(O)OP(=O)(O)OC[C@H]3O[C@@H](n4cnc5c(N)ncnc54)[C@H](OP(=O)(O)O)[C@@H]3O)[C@@H](O)[C@H]2O)c1; test: purified protein, by the assay type; set-up: Spectrophotometric steady-state kinetics with varied oxidised cofactor in 96-well plates; conditions: pH 8.0
Description: as §2

| Protein | Km (steady-state kinetics [1]) [µM] | kcat (steady-state kinetics [1]) [s⁻¹] | Km (steady-state kinetics [2]) [µM] | kcat (steady-state kinetics [2]) [s⁻¹] | Km [3] [µM] | Vmax [3] [µmol/min/mg] | kcat [3] [s⁻¹] | kcat/Km [3] [M⁻¹ s⁻¹] | Km [4] [µM] | Vmax [4] [µmol/min/mg] | kcat [4] [s⁻¹] | kcat/Km [4] [M⁻¹ s⁻¹] |
| --- | --- | --- | --- | --- | --- | --- | --- | --- | --- | --- | --- | --- |
| B1 | 10 | 1.0 | 80 | 2.25 |  |  |  |  |  |  |  |  |
| B2 |  |  |  |  | 27 | 45 | 40.7 | 1.51e+06 | 75 | 166 | 150 | 2e+06 |
| B3 |  |  |  |  | 26 | 14 | 13.4 | 516000 | 157 | 245 | 235 | 1.5e+06 |
